According to the supplement of paper PMC10065799, “High-throughput profiling of sequence recognition by tyrosine kinases and SH2 domains using bacterial peptide display” (eLife, 2023):

Tests used:
[1] = system: AncSZ; assay: phosphorylation enrichment, bacterial display (enrichment ratio); higher = better substrate or ligand; peptides without Tyr show the background
[2] = molecular target: EPHB1 (UniProt P54762); assay: as above
[3] = molecular target: EPHB2 (UniProt P29323); assay: as above
[4] = molecular target: FGFR1 (UniProt P11362); assay: as above
Chain of FGFR1 (P11362 whole entry, looked up): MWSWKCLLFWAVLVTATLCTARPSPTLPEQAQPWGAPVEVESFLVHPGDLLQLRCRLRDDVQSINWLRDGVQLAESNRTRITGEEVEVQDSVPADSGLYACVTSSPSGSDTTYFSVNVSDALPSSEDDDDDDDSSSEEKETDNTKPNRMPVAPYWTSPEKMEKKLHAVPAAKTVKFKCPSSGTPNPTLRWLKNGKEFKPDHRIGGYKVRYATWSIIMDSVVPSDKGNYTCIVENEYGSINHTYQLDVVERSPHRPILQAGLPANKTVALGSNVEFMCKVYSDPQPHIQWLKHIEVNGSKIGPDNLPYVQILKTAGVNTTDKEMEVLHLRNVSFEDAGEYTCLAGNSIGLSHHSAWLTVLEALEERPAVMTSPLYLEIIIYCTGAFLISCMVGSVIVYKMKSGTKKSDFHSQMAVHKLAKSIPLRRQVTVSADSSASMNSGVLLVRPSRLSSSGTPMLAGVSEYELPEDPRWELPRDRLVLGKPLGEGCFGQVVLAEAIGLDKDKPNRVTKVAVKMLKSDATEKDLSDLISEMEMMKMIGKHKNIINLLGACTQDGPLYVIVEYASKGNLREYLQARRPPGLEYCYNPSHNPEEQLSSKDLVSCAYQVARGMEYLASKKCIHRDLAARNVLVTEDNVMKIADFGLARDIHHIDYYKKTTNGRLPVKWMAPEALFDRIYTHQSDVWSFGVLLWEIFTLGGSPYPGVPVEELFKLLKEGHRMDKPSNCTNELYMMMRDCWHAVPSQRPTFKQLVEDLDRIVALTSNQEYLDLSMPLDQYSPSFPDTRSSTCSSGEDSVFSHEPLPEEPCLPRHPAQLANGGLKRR

[5] = molecular target: FGFR3 (UniProt P22607); assay: as above
Chain of FGFR3 (P22607 whole entry, looked up): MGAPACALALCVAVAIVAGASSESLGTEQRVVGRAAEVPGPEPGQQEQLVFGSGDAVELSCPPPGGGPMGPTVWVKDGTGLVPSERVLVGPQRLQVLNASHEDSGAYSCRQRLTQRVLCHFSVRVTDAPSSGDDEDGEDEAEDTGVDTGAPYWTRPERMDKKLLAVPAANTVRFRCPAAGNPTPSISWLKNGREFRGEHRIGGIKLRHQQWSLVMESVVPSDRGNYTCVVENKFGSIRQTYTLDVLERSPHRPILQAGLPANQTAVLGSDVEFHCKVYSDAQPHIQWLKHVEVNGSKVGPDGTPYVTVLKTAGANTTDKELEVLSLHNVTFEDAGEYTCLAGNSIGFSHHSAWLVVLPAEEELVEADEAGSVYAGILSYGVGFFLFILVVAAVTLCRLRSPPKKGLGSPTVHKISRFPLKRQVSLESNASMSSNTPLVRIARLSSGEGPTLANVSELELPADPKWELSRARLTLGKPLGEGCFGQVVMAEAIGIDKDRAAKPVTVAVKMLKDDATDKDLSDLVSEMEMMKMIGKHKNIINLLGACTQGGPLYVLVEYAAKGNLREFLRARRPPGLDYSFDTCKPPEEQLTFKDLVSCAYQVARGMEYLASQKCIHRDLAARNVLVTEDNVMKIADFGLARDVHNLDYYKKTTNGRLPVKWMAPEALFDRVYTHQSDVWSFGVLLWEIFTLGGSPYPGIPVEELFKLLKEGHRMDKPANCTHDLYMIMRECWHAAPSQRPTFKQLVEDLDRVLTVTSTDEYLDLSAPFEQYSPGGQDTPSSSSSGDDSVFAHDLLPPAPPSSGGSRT

[6] = system: Fer (mouse); assay: as above
[7] = molecular target: Fes (UniProt P07332); assay: as above
[8] = molecular target: Fyn (UniProt P06241); assay: as above
Chain of Fyn (P06241 whole entry, looked up): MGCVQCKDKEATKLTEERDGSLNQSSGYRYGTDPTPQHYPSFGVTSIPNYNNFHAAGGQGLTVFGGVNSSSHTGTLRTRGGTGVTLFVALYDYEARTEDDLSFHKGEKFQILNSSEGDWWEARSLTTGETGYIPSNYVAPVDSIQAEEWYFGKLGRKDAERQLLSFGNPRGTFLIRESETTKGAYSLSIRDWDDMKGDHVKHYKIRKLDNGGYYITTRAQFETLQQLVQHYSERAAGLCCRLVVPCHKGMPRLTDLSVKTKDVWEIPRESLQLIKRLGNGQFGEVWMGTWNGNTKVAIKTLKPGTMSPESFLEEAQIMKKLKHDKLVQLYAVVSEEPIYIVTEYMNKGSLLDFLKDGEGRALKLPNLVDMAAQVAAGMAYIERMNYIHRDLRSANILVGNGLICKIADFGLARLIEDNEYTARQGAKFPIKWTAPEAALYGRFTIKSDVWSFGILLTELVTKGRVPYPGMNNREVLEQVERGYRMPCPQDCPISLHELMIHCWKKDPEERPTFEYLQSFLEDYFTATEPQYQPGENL

[9] = molecular target: Hck (UniProt P08631); assay: as above
Chain of Hck (P08631 whole entry, looked up): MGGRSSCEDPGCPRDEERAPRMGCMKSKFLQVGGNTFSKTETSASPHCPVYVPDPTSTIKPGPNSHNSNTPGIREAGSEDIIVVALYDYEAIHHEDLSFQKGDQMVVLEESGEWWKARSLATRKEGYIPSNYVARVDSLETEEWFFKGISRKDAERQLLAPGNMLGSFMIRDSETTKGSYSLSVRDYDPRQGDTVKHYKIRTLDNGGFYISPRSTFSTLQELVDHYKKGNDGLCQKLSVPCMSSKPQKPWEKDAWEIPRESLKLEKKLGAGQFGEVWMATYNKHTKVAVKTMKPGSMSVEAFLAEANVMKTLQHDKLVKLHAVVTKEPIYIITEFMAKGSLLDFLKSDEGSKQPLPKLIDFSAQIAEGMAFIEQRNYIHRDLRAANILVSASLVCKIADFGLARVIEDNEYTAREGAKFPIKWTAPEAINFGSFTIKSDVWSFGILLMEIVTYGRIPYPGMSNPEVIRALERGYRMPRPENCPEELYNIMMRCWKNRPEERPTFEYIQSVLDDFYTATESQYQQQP

[10] = molecular target: Jak2 (UniProt O60674); assay: as above
[11] = molecular target: MERTK (UniProt Q12866); assay: as above
Chain of MERTK (Q12866 whole entry, looked up): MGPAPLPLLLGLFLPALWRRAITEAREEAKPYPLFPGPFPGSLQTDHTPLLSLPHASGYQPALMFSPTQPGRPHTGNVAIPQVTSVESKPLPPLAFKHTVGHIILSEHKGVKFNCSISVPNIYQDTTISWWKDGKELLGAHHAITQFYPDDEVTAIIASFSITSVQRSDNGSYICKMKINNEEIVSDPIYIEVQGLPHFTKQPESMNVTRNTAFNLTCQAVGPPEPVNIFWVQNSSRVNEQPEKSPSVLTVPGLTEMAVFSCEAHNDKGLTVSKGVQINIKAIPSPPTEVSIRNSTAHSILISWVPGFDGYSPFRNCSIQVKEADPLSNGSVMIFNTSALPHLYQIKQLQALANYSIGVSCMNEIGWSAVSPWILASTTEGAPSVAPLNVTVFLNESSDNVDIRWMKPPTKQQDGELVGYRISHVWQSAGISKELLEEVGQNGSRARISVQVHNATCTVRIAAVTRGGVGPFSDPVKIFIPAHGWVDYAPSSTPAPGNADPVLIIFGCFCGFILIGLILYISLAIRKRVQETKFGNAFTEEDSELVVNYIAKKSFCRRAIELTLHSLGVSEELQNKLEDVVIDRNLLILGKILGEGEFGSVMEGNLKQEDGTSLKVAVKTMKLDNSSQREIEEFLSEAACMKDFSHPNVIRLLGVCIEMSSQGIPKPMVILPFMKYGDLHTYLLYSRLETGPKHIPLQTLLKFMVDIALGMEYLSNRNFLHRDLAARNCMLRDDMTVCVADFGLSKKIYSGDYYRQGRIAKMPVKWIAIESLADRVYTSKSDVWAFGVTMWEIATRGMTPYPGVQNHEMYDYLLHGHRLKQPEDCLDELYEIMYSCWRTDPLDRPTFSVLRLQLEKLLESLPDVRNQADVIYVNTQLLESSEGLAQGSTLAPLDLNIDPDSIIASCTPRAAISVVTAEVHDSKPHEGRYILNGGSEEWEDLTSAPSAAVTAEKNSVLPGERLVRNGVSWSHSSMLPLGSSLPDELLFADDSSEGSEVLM

[12] = system: c-Abl (mouse); assay: as above
[13] = system: c-Src; assay: as above
[14] = molecular target: Grb2 SH2 (UniProt P62993); assay: SH2 binding enrichment of the phosphorylated peptide, bacterial display (enrichment ratio); higher = better substrate or ligand; peptides without Tyr show the background
[15] = molecular target: SHP2-C SH2; assay: as above
[16] = molecular target: c-Src SH2; assay: as above
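For SH2 binding enrichment of the phosphorylated peptide, bacterial display in this document: peptide library displayed on the E. coli surface as eCPX fusions, selected cells deep-sequenced, score is each peptide's frequency after selection divided by its frequency in the input.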
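For phosphorylation enrichment, bacterial display in this document: 11-residue human phosphosite peptides and single-mutation variants displayed on the E. coli surface, counted by deep sequencing, each peptide's frequency after selection divided by its frequency in the unselected input library; frequency after pTyr selection over input frequency; kinase dosed for 20-30% of maximal phosphorylation in three min.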

Chain of EPHB1 (P54762 whole entry, looked up): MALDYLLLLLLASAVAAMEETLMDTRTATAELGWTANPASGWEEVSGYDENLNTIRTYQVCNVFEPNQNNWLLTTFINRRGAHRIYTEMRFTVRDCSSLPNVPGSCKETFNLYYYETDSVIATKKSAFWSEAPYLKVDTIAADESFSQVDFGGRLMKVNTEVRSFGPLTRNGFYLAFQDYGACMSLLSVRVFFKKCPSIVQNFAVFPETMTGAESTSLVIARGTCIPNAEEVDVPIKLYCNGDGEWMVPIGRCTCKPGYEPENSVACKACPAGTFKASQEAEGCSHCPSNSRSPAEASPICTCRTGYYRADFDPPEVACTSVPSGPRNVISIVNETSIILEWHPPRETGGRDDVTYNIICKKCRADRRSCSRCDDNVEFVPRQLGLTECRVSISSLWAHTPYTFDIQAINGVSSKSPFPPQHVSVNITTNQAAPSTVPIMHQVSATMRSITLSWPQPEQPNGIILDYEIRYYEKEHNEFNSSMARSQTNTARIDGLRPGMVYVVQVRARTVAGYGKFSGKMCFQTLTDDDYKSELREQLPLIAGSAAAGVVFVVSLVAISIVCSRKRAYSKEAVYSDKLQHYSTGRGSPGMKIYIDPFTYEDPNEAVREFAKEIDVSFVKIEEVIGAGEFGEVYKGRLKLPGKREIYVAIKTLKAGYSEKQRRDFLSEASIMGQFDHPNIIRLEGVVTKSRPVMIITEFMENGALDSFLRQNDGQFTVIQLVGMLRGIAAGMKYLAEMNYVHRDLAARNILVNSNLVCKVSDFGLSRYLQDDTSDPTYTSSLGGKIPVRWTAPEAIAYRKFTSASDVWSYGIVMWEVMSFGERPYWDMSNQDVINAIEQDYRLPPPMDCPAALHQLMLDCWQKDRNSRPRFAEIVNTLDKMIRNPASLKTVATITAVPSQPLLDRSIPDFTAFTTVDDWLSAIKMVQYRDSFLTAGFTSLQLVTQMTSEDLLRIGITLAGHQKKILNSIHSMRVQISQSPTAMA

| SH2 binding enrichment [14] | SH2 binding enrichment [15] | SH2 binding enrichment [16] | Sequence | phosphorylation enrichment [1] | phosphorylation enrichment [2] | phosphorylation enrichment [3] | phosphorylation enrichment [4] | phosphorylation enrichment [5] | phosphorylation enrichment [6] | phosphorylation enrichment [7] | phosphorylation enrichment [8] | phosphorylation enrichment [9] | phosphorylation enrichment [10] | phosphorylation enrichment [11] | phosphorylation enrichment [12] | phosphorylation enrichment [13] |
| --- | --- | --- | --- | --- | --- | --- | --- | --- | --- | --- | --- | --- | --- | --- | --- | --- |
| 0.962 | 0.829 | 0.637 | TRLAQYDSNSK [BMX_Y216_S212R] | 0.713 | 0.399 | 0.402 | 0.527 | 0.41 | 0.445 | 0.684 | 0.44 | 0.42 | 0.811 | 0.682 | 0.776 | 0.643 |
| 0.703 | 0.478 | 0.436 | RRERPYGGGGG [FUS_Y526] | 0.563 | 0.453 | 0.554 | 0.554 | 0.523 | 0.46 | 0.467 | 0.471 | 0.414 | 0.42 | 0.375 | 0.284 | 0.485 |
| 1.2 | 0.821 | 0.719 | IEPCIYIPEDD [XPNPEP3_Y455_G453C] | 1.23 | 0.648 | 0.603 | 0.738 | 0.87 | 0.6 | 1.47 | 0.563 | 0.696 | 1.25 | 0.428 | 0.862 | 0.513 |
| 1.03 | 0.418 | 0.937 | QMQAAYQKVVA [HBD_Y131] | 0.504 | 0.373 | 0.441 | 0.419 | 0.72 | 0.519 | 0.578 | 0.47 | 0.47 | 0.497 | 0.412 | 0.422 | 0.293 |
| 1.01 | 0.571 | 0.465 | ATGMEYLASQK [FGFR2_Y616_R612T] | 0.736 | 0.479 | 0.495 | 0.464 | 0.833 | 0.426 | 0.794 | 0.559 | 0.474 | 0.68 | 0.423 | 0.58 | 0.44 |
| 0.984 | 0.726 | 0.856 | NFYEYYVDDPL [GCHFR_Y48_P53L] | 2.81 | 6.99 | 7.76 | 7.28 | 5.52 | 6.36 | 1.74 | 4.96 | 2.29 | 1.64 | 7.76 | 1.04 | 4.67 |
| 1.03 | 0.923 | 0.83 | VVQGIYGFHHF [UFSP2_Y285_YF] | 0.886 | 1.75 | 5.04 | 0.693 | 0.502 | 16.3 | 1.62 | 10.1 | 8.93 | 0.846 | 9.74 | 5.3 | 7.39 |
| 0.786 | 0.57 | 0.464 | SSSPTYLDLPF [GLI3_Y168_P169L] | 0.659 | 8.94 | 2.73 | 5.82 | 3.79 | 0.621 | 0.667 | 0.638 | 2.25 | 0.592 | 1.12 | 0.681 | 0.647 |
| 0.554 | 0.476 | 0.367 | PSVVAYPKRSQ [MARK3_Y432] | 0.834 | 0.517 | 0.413 | 0.39 | 0.949 | 0.531 | 0.793 | 0.565 | 0.573 | 0.531 | 0.409 | 0.522 | 0.309 |
| 0.595 | 0.353 | 0.571 | RGRSTCFWPRP [GAGE12J_Y9_Y9C_YF] | 0.71 | 0.782 | 0.733 | 1.05 | 0.928 | 0.786 | 0.772 | 0.693 | 0.635 | 1.19 | 0.796 | 1.04 | 0.867 |
| 1.01 | 0.636 | 0.654 | INSLKYAYNVS [EIF2B5_Y583_I587V] | 0.642 | 0.402 | 0.354 | 0.522 | 0.525 | 0.419 | 1.01 | 0.633 | 0.424 | 0.571 | 0.443 | 0.643 | 0.6 |
| 1.01 | 0.658 | 0.5 | INITIYGKTFR [EFHC1_Y177] | 1.13 | 0.648 | 0.683 | 0.583 | 0.781 | 0.936 | 1.37 | 0.438 | 0.573 | 1.4 | 0.439 | 1.05 | 0.508 |
| 0.961 | 0.623 | 0.606 | RSSGPYGGGGQ [HNRNPA1_Y341] | 0.811 | 0.466 | 0.485 | 0.589 | 0.441 | 0.518 | 0.686 | 0.715 | 0.616 | 0.485 | 0.625 | 0.643 | 0.56 |
| 0.541 | 0.514 | 0.464 | RPSGRYPVARR [SHANK3_Y1569] | 0.782 | 0.734 | 0.567 | 0.669 | 1.05 | 0.695 | 0.611 | 0.985 | 0.767 | 0.619 | 0.664 | 0.677 | 0.782 |
| 0.898 | 0.915 | 0.63 | VRTGIYHGGKP [PIK3CA_Y361_E365K] | 0.451 | 0.268 | 0.336 | 0.456 | 0.275 | 0.359 | 0.499 | 0.309 | 0.713 | 0.464 | 0.294 | 0.501 | 0.318 |
| 1.11 | 0.379 | 0.503 | EVTRLYGSVCD [TC2N_Y154_K151T] | 1.18 | 0.708 | 0.586 | 0.557 | 0.783 | 0.982 | 1.29 | 3.63 | 2.02 | 1.27 | 0.727 | 0.895 | 2.77 |
| 0.804 | 0.764 | 0.446 | SKDQIYPMKLK [RANBP17_Y823] | 0.451 | 0.29 | 0.458 | 0.386 | 0.437 | 0.336 | 0.533 | 0.417 | 0.361 | 0.493 | 0.355 | 0.449 | 0.572 |
